Key:
[1] = target: 2.1C-VISTA-ECD-Fc (human); assay: ELISA on plate-bound VISTA-ECD-Fc
4.1-VISTA-ECD-Fc (human) = assay: ELISA on plate-bound VISTA-ECD-Fc
5.1-VISTA-ECD-Fc (human) = assay: ELISA on plate-bound VISTA-ECD-Fc
RFQ-VISTA-ECD-Fc (human) = assay: ELISA, 10 ug/mL antibody on plate-bound mutant VISTA-Fc
RFQ-VISTA-ECD-Fc (human), sequence (chain, as listed by the source): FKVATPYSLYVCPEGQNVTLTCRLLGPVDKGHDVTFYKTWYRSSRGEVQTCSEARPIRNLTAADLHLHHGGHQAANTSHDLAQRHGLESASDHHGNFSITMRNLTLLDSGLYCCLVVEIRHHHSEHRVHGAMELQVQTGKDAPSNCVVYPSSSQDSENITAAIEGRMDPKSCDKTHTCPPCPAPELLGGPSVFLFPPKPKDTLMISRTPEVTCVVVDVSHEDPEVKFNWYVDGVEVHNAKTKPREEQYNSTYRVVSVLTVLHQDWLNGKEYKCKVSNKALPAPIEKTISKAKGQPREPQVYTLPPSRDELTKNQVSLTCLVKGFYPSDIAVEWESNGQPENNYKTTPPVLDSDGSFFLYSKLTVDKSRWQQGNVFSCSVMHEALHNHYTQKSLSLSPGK

4.1-VISTA-ECD-Fc (human), sequence (chain, as listed by the source): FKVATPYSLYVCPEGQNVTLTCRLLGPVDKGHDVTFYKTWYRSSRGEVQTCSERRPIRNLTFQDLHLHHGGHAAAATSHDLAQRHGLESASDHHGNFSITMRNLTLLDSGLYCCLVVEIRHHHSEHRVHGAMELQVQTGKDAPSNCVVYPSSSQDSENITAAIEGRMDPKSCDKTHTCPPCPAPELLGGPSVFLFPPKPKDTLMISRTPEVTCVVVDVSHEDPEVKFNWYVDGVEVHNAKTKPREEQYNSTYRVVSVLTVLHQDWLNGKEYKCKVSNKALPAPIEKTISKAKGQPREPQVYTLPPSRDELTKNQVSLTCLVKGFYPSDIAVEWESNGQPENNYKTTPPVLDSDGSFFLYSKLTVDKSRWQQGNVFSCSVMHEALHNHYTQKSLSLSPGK
2.1C-VISTA-ECD-Fc (human), sequence (chain, as listed by the source): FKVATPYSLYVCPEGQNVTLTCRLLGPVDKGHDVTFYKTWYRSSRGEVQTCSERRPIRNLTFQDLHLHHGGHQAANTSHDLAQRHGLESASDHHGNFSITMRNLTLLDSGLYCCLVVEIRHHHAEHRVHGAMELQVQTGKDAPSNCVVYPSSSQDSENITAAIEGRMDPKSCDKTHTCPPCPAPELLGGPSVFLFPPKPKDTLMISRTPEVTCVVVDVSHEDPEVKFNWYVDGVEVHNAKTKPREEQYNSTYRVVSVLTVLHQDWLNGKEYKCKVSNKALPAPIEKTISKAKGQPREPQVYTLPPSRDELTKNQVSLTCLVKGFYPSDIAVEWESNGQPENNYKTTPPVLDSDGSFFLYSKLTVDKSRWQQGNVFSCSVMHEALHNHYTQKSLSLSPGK
5.1-VISTA-ECD-Fc (human), sequence (chain, as listed by the source): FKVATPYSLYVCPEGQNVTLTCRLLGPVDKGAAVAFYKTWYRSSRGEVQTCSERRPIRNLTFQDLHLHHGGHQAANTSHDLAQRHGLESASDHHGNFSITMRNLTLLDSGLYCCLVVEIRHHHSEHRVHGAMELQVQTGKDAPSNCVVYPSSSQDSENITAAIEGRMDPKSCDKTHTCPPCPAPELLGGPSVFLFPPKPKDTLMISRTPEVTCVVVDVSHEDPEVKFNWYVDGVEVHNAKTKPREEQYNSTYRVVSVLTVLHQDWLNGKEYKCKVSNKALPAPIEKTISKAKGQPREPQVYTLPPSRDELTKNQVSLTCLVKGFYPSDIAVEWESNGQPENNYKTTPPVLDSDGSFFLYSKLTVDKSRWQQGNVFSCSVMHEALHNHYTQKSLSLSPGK

EC50 [1]: 100 mg/L
EC50 (4.1-VISTA-ECD-Fc (human)): 100 mg/L
EC50 (5.1-VISTA-ECD-Fc (human)): 100 mg/L
ELISA Abs 450 nm (RFQ-VISTA-ECD-Fc (human)): 0.019 Abs 450 nm
Substance: IgG1 (antibody)
